Reference: patent US8956838B2, “Carboxyl esterase polypeptides” (B.R.A.I.N., priority 2006, dated 2015)

How the values were obtained:
Format in all cases: biochemical
[1] = Enzyme activity with pNP-acylesters of different chain length; details: 4 mM, 45° C., pH 7.2
Experimental: Enzyme activity tests were performed by incubating the enzyme with 4 mM substrate at 45° C. in 100 mM Tris-HCl buffer at pH 7.2, unless otherwise indicated. The reaction was measured at 410 nm. One unit is defined as the amount of enzyme catalyzing the appearance of 1 μmol of free p-nitrophenol/min. Enzyme activity against pNP-acylesters (butyrate, valerate, caproate, octanoate, decanoate and palmitate) was tested under the above conditions. […] The enzyme according to SEQ ID NO: 6 converted pNP-caproate with a specific activity of 80.0 U/mg.

[2] = Titration assay with triglycerides; details: 10 mM, 37° C., pH 7.0
Experimental: (§1) Enzyme activities on the substrates triacetin, tripropionin, tributyrin, tricaprylene, trilaurin and vinyl-substrates (vinyl-acetate, ˜propionate, ˜butyrate, ˜caproate, ˜caprylate and ˜laurate) were determined using a standard titration assay with minor modifications. Tests were performed with a Methrom 718 STAT potentiometric titrator (Herisau, Switzerland) and by using 10 mM NaOH for titration. The substrates at 10 mM concentration were emulsified in 20 ml reaction buffer containing 2 mM Tris/HCl pH 7.0. After addition of 7.5 μg of the purified enzyme the NaOH consumption was recorded at a reaction temperature of 37° C. One unit was defined as the amount of enzyme that released […] of fatty acid per min.

[3] = Titration assay with vinyl acid esters; details: 10 mM, 37° C., pH 7.0
Experimental: as §1

[4] = Solvent stability, residual activity; details: for Residual activity after 1 h incubation in the presence of solvent: 1 h at 30° C., measured at 45° C.; for activity in the presence of solvent, levels up to: both concentrations (15% and 30% v/v)
Experimental: The stability of the enzymes was determined in the presence of the following solvents: DMSO, isopropanol, methanol, dimethylformamide, acetone and acetonitrile. The enzymes were incubated for 1 hour at 30° C. in the presence of either 15% (v/v) or 30% (v/v) of the solvents and the residual activity was measured at 45° C. The substrate used was pNP-butyrate.

[5] = Substrate specificity on pNP-substrates with importance for pharmaceutical products; details: 30 minute, 40° C., pH 7.5
Experimental: The substrate range of the two enzymes was determined using pNP esters of the following: benzoate, 2-(4-isobutylphenyl)propanoate (Ibuprofen), 2-phenylpropanoate, 3-phenylbutanoate, cyclohexanoate, 2-(3-benzoylphenyl)propanoate, 2-naphthoate, 1-naphthoate, adamantanoate and 2-(6-methoxynaphthalene-2-yl)propanoate (Naproxen). Activity was determined at 410 nm after 30 minute incubation at 40° C. The reaction mixture was 950 μl buffer (100 mM Tris, pH 7.5), 50 μl substrate (5 mg/ml in DMSO) and 1 μg enzyme.

[6] = Effect of bivalent cations and EDTA on catalytic activity
[7] = Determination of pH optimum by titration; details: incubation for up to 48 hours, up to pH 12 (data not shown)
Experimental: The pH optimum for the enzymes was determined using tributyrin as substrate. The incubation conditions were 20 ml buffer (2.5 mM phosphate buffer [pH 4-7], 2.5 mM Tris/HCl buffer [pH 7-11] or 2.5 mM glycine buffer [pH 9-11], supplemented with 100 mM NaCl) stirred at a constant temperature of 37° C. The esterase substrate tributyrin (final concentration of 2 mM) was added to 5 ml of the corresponding buffer at 37° C., emulsified and added to the whole preparation. This substrate emulsion was held constant at the correct pH automatically by the titrator (718 STAT Titrino; Metrohm, Herisau, Switzerland) for 2 min and this served as the control. […]

[8] = Determination of thermal stability
Experimental: To assay the thermostability of the enzymes they were incubated at different temperatures for one hour and the residual activity assayed at 10 minute intervals. Residual activity was measured using pNP-caproate as substrate as described above.

B1: EstA3: recombinant enzyme having carboxyl esterase activity, amino acid sequence SEQ ID NO: 2, family VIII of bacterial lipolytic enzymes (protein)
chain: MSAEELGFLPDRLARISDHIQTNYLDNGKLPFASLLIGRGDDIALQWSSGVADDAIFRIASMTKPVTSVAFMQLVEQGKVALTDPVAKYIPEFAKLGVFVAGGGNIPFVSRPPTMPMRIVDVLRHTTGFTYSFQERSNIDAAYRKTDVESWTRSTSQSFIDTLAEIPLEFDPGTQWNYSVSTDVLGILIERISGQSLPDYFRDHIFAPLGMVDTCFTVPADKAARIPQCFAFDPATKMKLFDEAGASSLWTKGWSFNSGGGGLASSVADYHRFCRMLLNGGALDGIQIISPKTLELMTANHLPGGQDLTQMSKSLFSEAEMAGIGFGLGFATTIDSVATLTPCSTGDFYWGGMYSTAFFVDPVEDIIMIFMTQLMPSSTYPVRREIKTMIYSALAA
modifications: metagenomic sequence
- specific activity ([1]; substrate pNP-butyrate (C4)): 513.6 U/mg
- specific activity ([1]; substrate pNP-caproate (C6)): 425.7 U/mg
- specific activity ([1]; substrate pNP-decanoate (C10)): 0 U/mg
- specific activity ([1]; substrate pNP-octanoate (C8)): 3.6 U/mg
- specific activity ([1]; substrate pNP-palmitate (C16)): 0 U/mg
- specific activity ([1]; substrate pNP-valerate (C5)): 425.7 U/mg
- specific activity ([2]; substrate triacetin (C2)): 147.5 U/mg
- specific activity ([2]; substrate tributyrin (C4)): 167.5 U/mg
- specific activity ([3]; substrate vinyl acetate (C2)): 107.5 U/mg
- specific activity ([3]; substrate vinyl butyrate (C4)): 387.5 U/mg
- specific activity ([3]; substrate vinyl caproate (C6)): 237.5 U/mg
- specific activity ([3]; substrate vinyl caprylate (C8)): 155.0 U/mg
- specific activity ([3]; substrate vinyl laurinate (C12)): 7.5 U/mg
- specific activity ([3]; substrate vinyl propionate (C3)): 380.0 U/mg
- Residual activity after 1 h incubation in the presence of solvent ([4]; 15% (v/v) Acetone): 152%
- Residual activity after 1 h incubation in the presence of solvent ([4]; 15% (v/v) Acetonitrile): 110%
- Residual activity after 1 h incubation in the presence of solvent ([4]; 15% (v/v) DMSO): 102%
- Residual activity after 1 h incubation in the presence of solvent ([4]; 15% (v/v) Dimethylformamid): 125%
- Residual activity after 1 h incubation in the presence of solvent ([4]; 15% (v/v) Isopropanol): 155%
- Residual activity after 1 h incubation in the presence of solvent ([4]; 15% (v/v) Methanol): 111%
- Residual activity after 1 h incubation in the presence of solvent ([4]; 30% (v/v) Acetone): 155%
- Residual activity after 1 h incubation in the presence of solvent ([4]; 30% (v/v) Acetonitrile): 87%
- Residual activity after 1 h incubation in the presence of solvent ([4]; 30% (v/v) DMSO): 104%
- Residual activity after 1 h incubation in the presence of solvent ([4]; 30% (v/v) Dimethylformamid): 128%
- Residual activity after 1 h incubation in the presence of solvent ([4]; 30% (v/v) Isopropanol): 117%
- Residual activity after 1 h incubation in the presence of solvent ([4]; 30% (v/v) Methanol): 130%
- activity in the presence of solvent, levels up to ([4]; acetone): ≤ 155%
- activity in the presence of solvent, levels up to ([4]; dimethylformamide): up to 128%
- specific activity ([5]; pNP-ester of 1-naphthoate): 0 U/mg
- specific activity ([5]; pNP-ester of 2-(3-benzoylphenyl) propanoate): 26.7 U/mg
- specific activity ([5]; pNP-ester of 2-(4-isobutylphenyl) propanoate (Ibuprofen)): 7.2 U/mg
- specific activity ([5]; pNP-ester of 2-(6-methoxy-naphthalen-2-yl) propanoate (Naproxen)): 26.7 U/mg
- specific activity ([5]; pNP-ester of 2-naphthoate): 0 U/mg
- specific activity ([5]; pNP-ester of 2-phenylpropanoate): 21.0 U/mg
- specific activity ([5]; pNP-ester of 3-phenylbutanoate): 31.6 U/mg
- specific activity ([5]; pNP-ester of adamantanoate): 0 U/mg
- specific activity ([5]; pNP-ester of benzoate): 9.4 U/mg
- specific activity ([5]; pNP-ester of cyclohexanoate): 50.0 U/mg
- effect on activity, in words ([6]; Ca^2+, Cu2+, Mg^2+, Zn^2+, Rb^2+ and EDTA): inhibitory effect
- stimulation of catalytic activity ([6]; in the presence of Co^2+): about 130%
- stability under alkaline conditions, in words [7]: extremely stable with little loss of activity
- thermal stability, in words ([8]; incubated for at least 60 minutes at 40° C.): without a major loss of activity
- thermal stability, in words ([8]; incubation at temperatures above 45° C. for more than 60 minutes (data not shown)): rapid inactivation
